Reference: publication PMC6054568

What was measured:
ErbB2 V635G CCH-10 = ErbB2 V635G CCH-10 (UniProt P04626); test: bipartite tetracysteine display
ErbB2 CCH-10 = ErbB2 CCH-10 (UniProt P04626); test: bipartite tetracysteine display

Substance	fold increase in ReAsH fluorescence (no growth factor) (ErbB2 V635G CCH-10)	fold increase in ReAsH fluorescence (no growth factor) (ErbB2 CCH-10)
ErbB2 V635G CCH-10 (from UniProt P04626 23-1255) (receptor)	1.7 fold	–
ErbB2 CCH-10 (from UniProt P04626 23-1255) (receptor)	–	1.8 fold
